± gives the uncertainty stated by the source.
Assay: self-splicing fitness, log relative to wild type (ln ratio); higher = more splicing; Tetrahymena group I intron in knt gene, E. coli kanamycin selection, DiMSum; sequences stand for … in CUCUCU…GGAGGGAAAAGUUAUCAGGCAUGCACCUGGUAGCUAGUCUUUAAACCAAUAGAUUGCAUCGGUUUAAAAGGCAAGACCGUCAAAUUGCGGGAAAGGGGUCAACAGCCGUUCAGUACCAAGUCUCAGGGGAAACUUUGAGAUGGCCUUGCAAAGGGUAUGGUAAUAAGCUGACGGACAUGGUCCUAACCACGCAGCCAAGUCCUAAGUCAACAGAUCUUCUGUUGAUAUGGAUGCAGUUCACAGACUAAAUGUCGGUCGGGGAAGAUGUAUUCUUCUCAUAAGAUAUAGUCGGACCUCUCCUUAAUGGGAGCUAGCGGAUGAAGUGAUGCAACACUGGAGCCGCUGGGAACUAAUUUGUAUGCGAAAGUAUAUUGAUUAGUUUUGGAGUACUCGUGGUCG
How it was run: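 A randomised library covering all eight P1ex-region intron nucleotides was built with the intron in the knt kanamycin-resistance gene on pET-22b(+) and held in E. coli BL21(DE3). Cells were grown overnight at 37°C or 30°C on LB agar, with or without 25 μg/mL kanamycin, plus 100 μg/mL carbenicillin, 50 μM IPTG and 0.2% rhamnose, and pooled colonies were amplicon-sequenced on an Illumina HiSeq 2500. DiMSum fitness is the error-weighted combination of wild-type-normalised replicate fold changes, kanamycin versus none.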

Row | Sequence | self-splicing fitness (ln) (30 °C) | self-splicing fitness (ln) (37 °C)
1 | GUUGAGCAAUAUUACGAACA | -2.67 ± 0.4 | -1.69 ± 0.32
2 | GGUGAGCAAUAUUACGCGAU | -3.7 ± 0.46 | 
3 | GCACAGCAAUAUUACGUUAU | -1.14 ± 0.044 | -0.44 ± 0.054
4 | CGGCAGCAAUAUUACGCCAU | -3.11 ± 0.2 | -1.6 ± 0.16
5 | CGCAAGCAAUAUUACGCGUU | -3.9 ± 0.15 | -2.86 ± 0.15
6 | GACAAGCAAUAUUACGGAAU | -1.92 ± 0.11 | -1.35 ± 0.12
7 | UUUGAGCAAUAUUACGGUUC | -3.67 ± 0.37 | -3.69 ± 0.46
8 | AACCAGCAAUAUUACGUAGU | -1.99 ± 0.06 | -1.42 ± 0.071
9 | CUGCAGCAAUAUUACGCGAG | -3.67 ± 0.17 | -1.98 ± 0.15
10 | ACCGAGCAAUAUUACGAAAU | -2.68 ± 0.27 | -2.76 ± 0.34
11 | UAGAAGCAAUAUUACGUAAG | -2.31 ± 0.13 | -1.3 ± 0.16
12 | AAACAGCAAUAUUACGUUGU | -4.04 ± 0.1 | -2.73 ± 0.1
13 | CCCAAGCAAUAUUACGAGCA | -3.01 ± 0.24 | -2.95 ± 0.25
14 | CCAGAGCAAUAUUACGCUUC | -3.48 ± 0.42 | 
15 | AAAUAGCAAUAUUACGGUGG | -3.94 ± 0.21 | -2.68 ± 0.17
16 | GGGUAGCAAUAUUACGGCAG | -3.66 ± 0.4 | -2.62 ± 0.4
17 | UCUAAGCAAUAUUACGCGAU | -4.31 ± 0.33 | -3.83 ± 0.36
18 | GUUAAGCAAUAUUACGCAUG | -1.11 ± 0.083 | -0.624 ± 0.11
19 | AAAUAGCAAUAUUACGCCGU | -1.37 ± 0.21 | 0.028 ± 0.18
20 | CAAUAGCAAUAUUACGGACU | -4.49 ± 0.34 | -2.11 ± 0.23
21 | ACGGAGCAAUAUUACGAUUG | -3.04 ± 0.25 | -1.43 ± 0.22
22 | ACAUAGCAAUAUUACGAGGU | -3.59 ± 0.16 | -3.3 ± 0.15
23 | GCUUAGCAAUAUUACGUGCA | -1.11 ± 0.11 | -0.319 ± 0.13
24 | GAGGAGCAAUAUUACGUAAU | -3.87 ± 0.22 | -2.54 ± 0.19
25 | AUACAGCAAUAUUACGGUUG | -2.35 ± 0.097 | -0.364 ± 0.093

Row | Sequence | self-splicing fitness (ln) (30 °C) | self-splicing fitness (ln) (37 °C)
26 | UUAGAGCAAUAUUACGUUAC |  | -2.17 ± 0.46
27 | UAAUAGCAAUAUUACGACUG | -0.137 ± 0.062 | 0.0819 ± 0.078
28 | UACCAGCAAUAUUACGUAUG | -2.62 ± 0.073 | -1.58 ± 0.082
29 | GAGAAGCAAUAUUACGUAUG | -2.37 ± 0.14 | -1.29 ± 0.14
30 | CGUUAGCAAUAUUACGAUCG | -0.9 ± 0.11 | -1.12 ± 0.14
31 | AAAUAGCAAUAUUACGUUCC | -2.08 ± 0.16 | -1.1 ± 0.19
32 | CUACAGCAAUAUUACGUAAG | -1.14 ± 0.068 | -0.424 ± 0.092
33 | AUGGAGCAAUAUUACGCGAG | -2.22 ± 0.3 | 
34 | GUCUAGCAAUAUUACGUCGG | -3.43 ± 0.2 | -2.51 ± 0.2
35 | AAGGAGCAAUAUUACGGGGA | -3.91 ± 0.29 | -2.25 ± 0.25
36 | GUAAAGCAAUAUUACGUAUC | -1.1 ± 0.07 | -0.568 ± 0.098
37 | UCUGAGCAAUAUUACGUGUG | -2.15 ± 0.12 | -1.51 ± 0.12
38 | GUACAGCAAUAUUACGUGGC | -3.61 ± 0.17 | -1.75 ± 0.13
39 | UUCAAGCAAUAUUACGCGAC | -2.61 ± 0.24 | -1.91 ± 0.2
40 | AUAUAGCAAUAUUACGGCGU | -0.109 ± 0.11 | -0.16 ± 0.12
41 | GACAAGCAAUAUUACGUUCC | -3.15 ± 0.24 | -2.8 ± 0.31
42 | ACCUAGCAAUAUUACGGAUA | -1.65 ± 0.11 | -1.59 ± 0.099
43 | CGAAAGCAAUAUUACGCACA | -0.831 ± 0.11 | -0.358 ± 0.16
44 | UCCAAGCAAUAUUACGACUG | -3.78 ± 0.16 | -2.6 ± 0.17
45 | UGCUAGCAAUAUUACGCCCG | -0.583 ± 0.19 | 0.807 ± 0.3
46 | ACAUAGCAAUAUUACGCUUG | -1.76 ± 0.11 | -1.28 ± 0.14
47 | ACAGAGCAAUAUUACGUUUC |  | -2.31 ± 0.39
48 | UUUGAGCAAUAUUACGGAGC | -2.02 ± 0.49 | 
49 | UAAAAGCAAUAUUACGACUC | -1.22 ± 0.12 | -0.668 ± 0.18
50 | GUUAAGCAAUAUUACGAUUA | -1.04 ± 0.13 | -0.324 ± 0.11

Reference: the supplement of paper PMC7877785
